The target of assay [1] is T1, cAMP-dependent Protein Kinase (Catalytic Subunit) (Mus musculus, UniProt P05132).
T1 construct: purchased Calbiochem
Kind of assay: Continuous fluorescence kinase assay, kinetic constants of Sox peptide substrate with PKA. The assay is classed as biochemical. The following applies: 20 mM HEPES pH 7.4, 10 mM MgCl2, 1 mM ATP, 1 mM DTT, 40 units PKA, 30° C.; average of four Hanes plots. How it is done:
A typical reaction contained solution 5 (90 μl), solution 6 (20 μl), solution 7 (1 μl) and an appropriate volume of substrate stock solution. Enzyme working stock (1 μl) was added to begin the reaction.
5 nm emission and excitation slit widths were used.
Substitution of (2) into (I) followed by rearrangement, yields: […]

Assay [2] addresses Protein Kinase Cα (Homo sapiens, UniProt P17252). The note with it: 20 mM HEPES pH 7.4, 10 mM MgCl2, 0.3 mM CaCl2, 1 mM ATP, 0.7 nM PKCα, 30° C.; average of four Hanes plots. The method, then: PKC: On the day of the assay, a 1 μl aliquot of Protein Kinase Cα (Human, Recombinant, Calbiochem) was diluted with 20 μl of solution 4 and stored on ice. A typical reaction contained solution 4 (84 μl), solution 6 (19 μl), solution 8 (5 μl), solution 7 (1 μl), and enzyme working stock (1 μl). An appropriate volume of substrate stock solution was added to begin the reaction.
Fluorescence experiments were performed on a Fluoromax 3 from Jobin Yvon. 5 nm emission and excitation slit widths were used. For all experiments, an excitation wavelength of 360 nm was used. Enzyme assays were performed by monitoring emission at 485 nm.
To solve for Km and Vmax for this reaction, determination of the initial rate of product formation from the increase in fluorescence intensity is necessary. With this sensor, a correction for the decrease in fluorescence intensity due to the starting material being consumed is needed to determine the rate of product formation from the initial slope. The fluorescence intensity at any given point can be determined from the following equation: I(t)=fSS(t)+fPP(t) (1) where I(t) is the fluorescence intensity, S(t) is the amount of substrate in μM, P(t) is the amount of product in μM, fS is the fluorescence intensity per μM) of substrate, and fP is fluorescence intensity per μM of product. The amount of substrate and product at any given point are related by: S(t)+P(t)=S0 (2) where S0 is the initial amount of substrate. Substitution of (2) into (I) followed by rearrangement, yields:
The initial slope of the reaction, dI(t)/dt, was measured within the first 5% of substrate turnover. The constants fP and fS were calculated from the slope of a line of fluorescence intensity versus concentration of P and S, respectively. A linear fit of a Hanes plot ([…]) was used to find Km and Vmax.

Marks after values point to notes of the source that are not given here. Sox = metal binding amino acid

What is called Km is the substrate concentration at which the rate is half of its maximum. With “Ac-Leu-Arg-Arg-Ala-Ser-Leu-Pro-Sox-NH2 (Ac-LRRASLP-{Sox-NH2}) [Ac-LRRAS*LP-Sox-NH2, Sox-containing peptide substrate (sensor) for PKA]”, in assay [1], the Km is 1.8 ± 0.5 µM and the Vmax is on record as 3.7 ± 1.6^f μmol/min/mg.

As to “Ac-Sox-Pro-Gly-Ser-Phe-Arg-Arg-Arg-NH2 [Ac-Sox-PGS*FRRR-NH2]”, in assay [2], the Km amounted to 8.6 ± 2.9 µM and the Vmax is recorded as 5.9 ± 1.9^d μmol/min/mg.

For “Ac-Sox-Pro-Gly-Thr-Phe-Arg-Arg-Arg-NH2 ({Ac-Sox}-PGTFRRR-NH2) [Ac-Sox-PGT*FRRR-NH2]”, in assay [2], the Km worked out at 23 ± 3 µM and the Vmax was 2.3 ± 0.6^d μmol/min/mg.

The values are drawn from US7892775B2, “Fluorescence assay for kinase activity” (Massachusetts Institute of Technology, priority 2003, dated 2011).
